Patent US20170022258A1, “PEPTIDES FOR USE IN THE TREATMENT OF IL-1 RELATED DISEASES AND CONDITIONS” (C4M PHARMACEUTICALS PTY LTD., priority 2011, published 2017)
Blank lines part the entries; values can stand above or below the molecule they belong to. Non-standard residues stand in square brackets, D forms with d. No end group written: not given here.

What was measured:
[1] = test system: IL-1 stimulation of IL-8 in human skin fibroblasts; assay: Inhibition of IL-1 induced IL-8 in human fibroblasts; assay type: cell-based; conditions: n=3; maximal activation with IL-1 only 2530±13 pg/ml
Experimental: Inhibition of IL-1 induced IL-8 in human fibroblasts was determined using normal human dermal fibroblast cells cultured in DMEM with 10% fetal calf serum in 48-well plates.
Twenty-four hours before initiation of the experiment, the medium was changed to DMEM with 0.2% fetal calf serum. Each peptide was added to confluent cells, which were then pulsed for 30 min with rIL-I,B (which was obtained from R & D Systems) at 50 pg/ml. The cells were washed four times with PBS, and fresh DMEM/0.2% fetal calf serum was added to each well. After 5 hr of incubation, the culture media were collected and analyzed by ELISA for IL-8 (which was obtained from R & D Systems). Maximal activation, with IL-1 only, was 2530±13 pg/ml of IL-8. Nonspecific activation, determined in the presence of 1000-fold excess IL-1Ra, was 30±9 pg/ml of IL-8 (n=3).

[2] = test system: IL-1α-induced IL-8 production by HT-29 cells; assay: IL-1α induced IL-8 production by HT-29 colonic epithelial cells; assay type: cell-based, human; conditions: IL-1ra 500 control
Experimental: (§1) Human colon epithelial cell lines HT-29 and Caco2 obtained from the European Collection of Animal Cell Cultures (ECACC) were used in cell cultures. Cells were routinely cultured at 37° C. in an atmosphere of 5% CO2 in 80 cm^2 tissue culture flasks in McCoy's and DMEM medium, respectively, supplemented with penicillin (10 u/ml), streptomycin (10 μg/ml), fungizone (0.5 μg/ml), and 10% (v/v) FCS (referred to as complete medium) until confluent.
(§2) Confluent monolayers were sub-cultured into 6-well plates for experimental protocols. Cells were grown in 6-well plates until confluent. Twenty-four hours prior to the experiment the confluent monolayers were washed and cultured in FCS-free McCoy's medium. Growth arrested cultures were then treated with fresh FCS-free medium and stimulated with vehicle controls or various doses of IL-1α added alone or in combination with other pro-inflammatory cytokines (TNF-α, IFN-γ) in the presence or absence of the peptide of sequence 4 or IL-1 ra, in a dose and time dependent manner.
(§3) Supernatants were collected, centrifuged to remove cellular debris and stored at −70° C. until assayed for extracellular inflammatory mediators. Total RNA for RT-PCR was extracted as described above. Cell counting and viability was routinely checked at the beginning and the end of the experiment by phase microscopy and by trypan blue exclusion using representative wells. Mycoplasma tests were performed during the experimental protocol. Production of soluble mediators was assessed by commercially available ELISA in supernatants, RT-PCR in total RNA extractants and nitric oxide, as described in Kolios, G, et al. (1995). Br J Pharmacol, 116, 2866-2872, the contents of which are incorporated herein by reference.
HT 29 and Caco2 colonic epithelial cell lines were stimulated with 10 ng/ml of IL-la in the presence of 100 or 500 ng/ml of the peptide of sequence 4.

[3] = test system: IL-1α-induced IL-8 production by Caco2 cells; assay: IL-1α induced IL-8 production by Caco2 colonic adenocarcinoma cells; assay type: cell-based, human; conditions: IL-1ra 100 ng/ml, IL-1α alone 476.93±78.9, n=3
Experimental: as §1, §2
(§4) Supernatants were collected, centrifuged to remove cellular debris and stored at −70° C. until assayed for extracellular inflammatory mediators. […] Production of soluble mediators was assessed by commercially available ELISA in supernatants, RT-PCR in total RNA extractants and nitric oxide, as described in Kolios, G, et al. (1995). […]

[4] = test system: IL-1α+IFN-γ induced IL-8 production by HT-29 cells; assay: IL-1α+IFN-γ induced IL-8 production by HT-29 cells; assay type: cell-based, human; conditions: IL-1ra control
Experimental: as §1, §2, §3
Stimulation of HT-29 cells with a combination of pro-inflammatory cytokines induces increased secretion of chemokines, including IL-8 (as described in Kolios, G, et al. (1999). Eur J Immunol, 29, 530-536 the contents of which are herein incorporated by reference). […]

[5] = test system: IL-1α+IFN-γ induced IL-17 production by HT-29 cells; assay: IL-1α+IFN-γ induced IL-17 production by HT-29 cells; assay type: cell-based, human; conditions: IL-1ra control
Experimental: as §1, §2, §4

[6] = background statement; cited from earlier work
[7] = target: IL-1 receptor (IL-1R) expressed on human monocytes (human) (UniProt P14778); assay: cell-based or functional assay
[8] = target: IL-1 receptor (IL-1R) expressed on human monocytes (human) (UniProt P14778); assay: radioligand competition, 40 pM 125I-IL-1α on confluent human monocytes
[9] = target: T1, IL-1 receptor (IL-1R) expressed on human monocytes (human), P14778; assay: cell-based or functional assay
T1 chain: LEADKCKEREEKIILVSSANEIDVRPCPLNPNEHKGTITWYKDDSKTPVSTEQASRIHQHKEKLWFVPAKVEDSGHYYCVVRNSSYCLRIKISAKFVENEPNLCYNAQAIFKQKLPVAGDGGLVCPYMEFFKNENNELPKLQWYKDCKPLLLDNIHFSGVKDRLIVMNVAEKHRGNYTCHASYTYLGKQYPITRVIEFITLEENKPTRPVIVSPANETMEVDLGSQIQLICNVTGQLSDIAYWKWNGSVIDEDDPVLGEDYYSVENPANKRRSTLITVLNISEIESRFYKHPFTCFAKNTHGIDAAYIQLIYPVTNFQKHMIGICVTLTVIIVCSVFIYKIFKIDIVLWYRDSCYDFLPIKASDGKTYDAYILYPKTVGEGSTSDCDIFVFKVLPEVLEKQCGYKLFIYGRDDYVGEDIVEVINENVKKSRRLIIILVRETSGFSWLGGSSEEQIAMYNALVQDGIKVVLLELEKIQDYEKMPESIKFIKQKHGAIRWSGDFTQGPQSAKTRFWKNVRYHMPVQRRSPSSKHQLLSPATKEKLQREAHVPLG

[10] = target: T1, IL-1 receptor (IL-1R) expressed on …; assay: radioligand competition, 40 pM 125I-IL-1α on confluent human monocytes

IC50, in vitro inhibition of IL-1 stimulation of IL-8 in human skin fibroblasts (rIL-1β 50 pg/ml, IL-8 ELISA) [7]: 120 nM | IC50 [8]: 22 nM
Molecule: Ac-[dL][dP][dL][dA][dY][dP][dQ][dW][dY][dY][dA][dN][dS][dE][dE][dW][dT][dF] [peptide of SEQ ID NO: 16 (Ac-…, D-amino acids)]

IC50, in vitro inhibition of IL-1 stimulation of IL-8 in human skin fibroblasts (rIL-1β 50 pg/ml, IL-8 ELISA) [9]: 5.9 nM | IC50 [10]: 6.9 nM
Molecule: Ac-[dL][dP][dL][dA][dY][dP][dQ][dW][dY]G[dP][dT][dW][dE][dF]

IC50, in vitro inhibition of IL-1 stimulation of IL-8 in human skin fibroblasts (rIL-1β 50 pg/ml, IL-8 ELISA) [7]: 810 nM | IC50 [8]: 190 nM
Molecule: Ac-[dL][dP][dL][dA][dY][dP][dQ][dW][dY]G[dP][dT][dW][dE][dF][dS][dS][dV][dN][dA][dT] (not fully specified (residue 10); printed as Ac-LPLAYPQWYGPTWEFSSVNAT) [peptide of SEQ ID NO: 18 (Ac-…, D-amino acids)]

Further lines, the molecule ahead of its results:

Molecule: IL-1ra: IL-1R antagonist, member of the IL-1 cytokine family; competitively inhibits the activities of IL-1 [reference compound]
IL-8, nonspecific activation in the presence of 1000-fold excess IL-1Ra [1]: 30 ± 9 pg/mL | IL-8 production in the absence of IL-1α [2]: did not result in production of IL-8 | IL-1α-induced IL-8 secretion [3]: 923.95±63.69 pg/ml per 106 cells | IL-8 production in the absence of IL-1α [4]: did not result in production of IL-8 | IL-17 production without cytokine stimulation [5]: did not produce significant amounts of IL-17

Molecule: recombinant IL-1Ra: recombinant full length IL-1Ra approved for methotrexate resistant rheumatoid arthritis (Amgen: Kineret-Anakinra)
half-life [6]: approximately six
